{
  "source": "paper doi:10.1101/2020.11.24.396648",
  "assay_in_all_cases": "cryo-EM structure",
  "key": {"[1]": {"biological_target": "E. faecalis 70S ribosome (Enterococcus faecalis (endogenous in TX5332))"}, "[2]": {"biological_target": "L. monocytogenes 70S ribosome (Listeria monocytogenes (endogenous in EDG-e)) (UniProt B8DAY5)"}, "[3]": {"biological_target": "S. aureus 70S ribosome (Staphylococcus aureus (endogenous in SH1000)) (UniProt P48940)", "sequence (P48940 whole entry, looked up)": "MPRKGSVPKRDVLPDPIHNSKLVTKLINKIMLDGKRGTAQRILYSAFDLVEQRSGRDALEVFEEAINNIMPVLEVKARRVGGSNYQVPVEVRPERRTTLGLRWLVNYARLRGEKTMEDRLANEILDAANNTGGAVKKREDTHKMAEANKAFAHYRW"}},
  "data": [
    {"substance": "E. faecalis LsaA-EQ2-HTF (ATPase-deficient E142Q/E452Q, C-terminal His6-TEV-FLAG3 tag) (natural protein)", "values": [
      {"measurement": "occupancy of the factor on the ribosome (percent of picked ribosomal particles)", "setting": "[1]", "value": "> 95", "unit": "%"}
    ]},
    {"substance": "L. monocytogenes VgaL-EQ2-HTF (Lmo0919, ATPase-deficient E104Q/E408Q, C-terminal His6-TEV-FLAG3 tag) (natural protein)", "values": [
      {"measurement": "occupancy of the factor on the ribosome (percent of picked ribosomal particles)", "setting": "[2]", "value": 70, "unit": "%"}
    ]},
    {"substance": "S. haemolyticus VgaALC-EQ2-FLAG3 (ATPase-deficient E105Q/E410Q, C-terminal FLAG3 tag) (natural protein)", "values": [
      {"measurement": "occupancy of the factor on the ribosome (percent of picked ribosomal particles)", "setting": "[3]", "value": 60, "unit": "%"}
    ]}
  ]
}
